B1: Biotin-RNA3 (A24 DNA) (XNA)
strand: AAAAAAAAAAAAAAAAAAAAAAAA
modifications: 2'-deoxy A substitutions, about 50% by design (positions in Table S2/Fig. 3A not in material)
B2: Biotin-RNA5 (A24 2'-MOE) (XNA)
strand: AAAAAAAAAAAAAAAAAAAAAAAA
modifications: 2'-O-methoxyethyl A, about 50% by design (positions in Table S2/Fig. 3A not in material)

Target: PABP (hPABPC1) (human, UniProt P11940 1-636)
Experiment: SPR

Sequence of PABP (hPABPC1) (P11940 whole entry): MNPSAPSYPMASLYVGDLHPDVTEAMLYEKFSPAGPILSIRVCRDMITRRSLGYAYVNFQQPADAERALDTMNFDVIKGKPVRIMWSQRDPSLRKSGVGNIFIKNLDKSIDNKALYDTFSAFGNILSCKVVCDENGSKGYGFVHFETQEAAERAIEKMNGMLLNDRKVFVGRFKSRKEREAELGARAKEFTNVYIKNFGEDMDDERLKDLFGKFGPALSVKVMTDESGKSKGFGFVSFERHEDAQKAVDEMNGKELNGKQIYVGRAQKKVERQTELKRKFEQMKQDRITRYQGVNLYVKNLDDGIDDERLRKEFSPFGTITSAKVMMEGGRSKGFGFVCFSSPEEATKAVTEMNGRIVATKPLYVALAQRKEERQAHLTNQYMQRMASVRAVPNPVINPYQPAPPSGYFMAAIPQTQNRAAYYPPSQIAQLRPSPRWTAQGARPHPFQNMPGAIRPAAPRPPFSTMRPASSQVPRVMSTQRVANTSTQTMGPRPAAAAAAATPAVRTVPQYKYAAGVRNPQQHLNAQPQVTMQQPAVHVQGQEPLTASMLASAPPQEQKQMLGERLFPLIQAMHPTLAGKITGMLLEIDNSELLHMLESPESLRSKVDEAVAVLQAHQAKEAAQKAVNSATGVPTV

Binding result, no binding:
B1
AAAAAAAAAAAAAAAAAAAAAAAA (XNA, 2'-O-methyl A, 50% substitution (positions in Table S2/Fig. 3A not in material)) [Biotin-RNA4 (A24 2'-OMe)]
B2
ACUGCGCUGAUUUUUUUUUUUUUUUUUUUUUUUUUUUUUUUUUUUUUUUU (ssRNA) [Biotin-RNA8 (U40)]
AAAAAAAAAAAAAAAAAAAAAAAA (XNA, 2'-fluoro A, 50% substitution (positions in Table S2/Fig. 3A not in material)) [Biotin-RNA6 (A24 2'-F)]

From paper PMC12381655
